# Data published in the supplement of paper PMC12042874.
# ± gives the uncertainty stated by the source.
# Experiment: amyloid nucleation score (Sup35N fusion, yeast selection) (log enrichment); library NNK1; higher = more nucleation; inactive = no reads after selection
# Method in brief: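 After 24 hours of induction with 100 μM copper sulfate, psi-negative yeast expressing peptides of 20 random codons fused to Sup35N were grown for 7 days at 30°C on medium lacking adenine and uracil. Input and output plasmid inserts were sequenced with Illumina, and sequences with under 100 input reads were discarded. Scores for nucleation are the DiMSum log enrichment of output over input reads, centred on the mode score of non-aggregating sequences.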
row,Substance,amyloid nucleation score
1,LNCCRMGGVLS,0.11 ± 0.42
2,CLLFNGNKLVCSHILMRKNG,0.443 ± 0.23
3,VQFSLGALFWWPWGR,2.27 ± 0.22
4,KDTQCHIARATRRGVRGNVF,-0.48 ± 1.1
5,HCGGNSRSVN,-1.11 ± 0.83
6,MYTFN,-0.031 ± 0.19
7,WKGMMQFDMSHSCVYWWKCA,0.71 ± 1.1
8,SPPFQSELMLPLRLSGLVSS,1.28 ± 0.93
9,AVVKAVVNGRILFYRTREVS,0.226 ± 0.58
10,NWRFGLYSHIGIWLMVKS,1.86 ± 0.38
11,AKVPVKGQRLRTGLPKSTHT,-1.88 ± 1.4
12,AIFVCNH,0.229 ± 0.5
13,TYDQTRMTVHRSSSIERART,0.173 ± 1.4
14,LIYESNREHYYMRSRSAVTR,-0.825 ± 0.99
15,VVRLG,0.124 ± 1
16,VILVFRVDNCTERKAN,-0.097 ± 0.5
17,YDTLMMNNLEMSTFVRMGLW,0.503 ± 0.51
18,LIYYNLIGHRVSWGEVGYFV,0.014 ± 0.35
19,VGGNPN,1.19 ± 0.98
20,VFSSVGGETSYRCMGTASGT,-0.231 ± 0.46
21,VPANEFCMADIMHRANRMLG,0.758 ± 0.71
22,YYTYDGVGSLICTCRFTRVV,-0.356 ± 0.49
23,LNAESLMSRFVCGMFVVTKG,0.112 ± 1.2
24,CKQRKCLGRIYVCEHISQSL,0.461 ± 0.67
25,TLSPTAGPAVVALILYGSLT,1.17 ± 0.65
26,HYGSWLCELDVVLYCDCSVM,0.021 ± 0.62

row,Substance,amyloid nucleation score
1,LTKRVGFDEMSLPHQDASSV,-0.289 ± 0.36
2,SALSGWVANSCYEVRGLRNV,inactive
3,CPVRSRIVVRCLYFSHMRST,0.263 ± 1.1
4,YMLRYVAWCLGPAL,0.459 ± 0.37
5,CLKFSIFDGE,0.127 ± 0.6
6,YSVSWQLFGIDVCTFVTVRS,0.367 ± 0.52
7,VVMLSVSPLTIHRGSFRDCS,2.97 ± 0.1
8,LLRLVSFCCFSNRN,6.05 ± 0.053
9,NAFCHAYSI,-1.49 ± 1.2
10,KIRRGCMLLGQHVWTT,0.207 ± 0.35
11,VSLCEMNRSFCWDAGASGRV,0.621 ± 1
12,HYTLCCKFFNQHVGHAMQNE,1.87 ± 0.51
13,CAQRPAVRSF,-0.075 ± 0.98
14,KGMYISWIVAVCS,0.411 ± 0.3
15,TRTTKMAH,1.24 ± 0.45
16,DETDQNTFTTSIV,1.23 ± 0.28
17,CLFFLPQGLKRYE,0.015 ± 0.53
18,FQVLYNGVMCHYSCWCVWKV,1.05 ± 0.19
19,NKLAHSNVDKAKLRDNPQAG,-0.407 ± 1
20,KFACLRWVICKYCLWV,-0.412 ± 0.49
21,SLMTQDCNFRYYLKRCI,0.894 ± 0.63
22,YSFSISVYLLGLSCCCWMGE,6.08 ± 0.064
23,QDFILDNCFPEGNLVCFKGV,0.361 ± 0.58
24,WVQNHKRQAPRDVLLSSYPD,inactive
25,AMYVDQVLHQPRPLMSPRMQ,0.515 ± 0.51
26,LAYKNSLWGLLWKRF,-0.011 ± 0.49

row,Substance,amyloid nucleation score
1,RHCLKVFSEDTYESVKVVLR,0.428 ± 0.75
2,EISQNTL,-0.672 ± 0.32
3,FGLEK,1.25 ± 0.64
4,SVPITLIGALGVKM,0.177 ± 0.57
5,LIIVEIMLDDVSVVSFRVIH,0.195 ± 0.6
6,VRWCYILQQ,inactive
7,YYIEVLILCWACQNALSRAS,0.5 ± 0.9
8,LSSSWLNKKLH,-0.647 ± 0.9
9,GMHLNCHGCILSSV,-0.021 ± 0.77
10,RVSFQIVTVGWC,-1.13 ± 1.2
11,VLHEGCIMFKKLLLKALCRR,-0.128 ± 0.45
12,VDRVGYIP,-0.506 ± 0.47
13,CRAGY,-0.534 ± 0.64
14,SRDASLDRPSRRV,-0.465 ± 0.49
15,CVHAHTTHITSCRARPSTEA,0.435 ± 0.28
16,YNYDPRFVY,-0.246 ± 0.28
17,PTVLTVLFNRPFRSCN,-0.178 ± 0.61
18,ITCSHPQRMLVCSCKSPWCF,3.31 ± 0.13
19,ELGYSTHCIMS,-0.735 ± 0.66
20,RCQNRH,-0.221 ± 0.46
21,KSYVCGTLTFRLGSVHCVNM,7.025 ± 0.057
22,VGIPRYGYEPVVHALVKPFE,0.959 ± 0.79
23,SGLFPVLGEHGNHRVSGSI,-1.4 ± 1.6
24,DEPAWCSIFAGDIMLKCC,3.57 ± 0.077
25,MLYDFVDIRECNDILPARGG,0.043 ± 0.35
26,ANMHRVKAYCHIFGLSHETE,-0.775 ± 0.73

row,Substance,amyloid nucleation score
1,MDTVFSFYVIIPVQFSCVAL,3 ± 0.13
2,NFSYMLLLAPSKVTRAGCFV,-0.134 ± 1.3
3,MSWNYCNDM,-0.045 ± 0.22
4,NWFTSMRGLYVSLWYRMKKG,inactive
5,FIYMQSVCAWFISWNSFR,0.355 ± 0.86
6,EINCHSSMGFMRWPPRSGNG,-0.962 ± 1
7,VFLVYLY,-0.608 ± 0.28
8,KLCWASTRMMWRFYFLDCLD,0.146 ± 0.39
9,SNFINLGRWFRIDL,0.377 ± 0.53
10,WVSNCIFDAGLWRSYYRMGI,0.74 ± 0.34
11,SDNTMSPKLCLMASWVRIST,0.418 ± 0.23
12,LLRYITARETSLTQSQP,0.298 ± 0.53
13,CFRHR,0.428 ± 0.5
14,ELGTVFGLTYYTMTDYVPMT,0.483 ± 0.22
15,TYYKQYVLMYRALNFAGSWS,1.21 ± 0.79
16,FFSYRDSISVKR,-0.449 ± 0.75
17,SMEGLMSLMHSRISRFVFRV,0.168 ± 1.2
18,VLSVNAV,-0.482 ± 0.51
19,NGFSYVCFNGFQLMCLDSIM,7.779 ± 0.044
20,YEPEGIQSIWRCSAVRHAKA,-0.286 ± 1.9
21,FCRRGSWVEPLLTCRYAMEA,-0.155 ± 0.64
22,VRAGH,0.087 ± 0.27
23,HSHRVIS,0.828 ± 0.51
24,RGHLKLVTNYISMSRVSYFS,2.07 ± 0.16
25,FFLMISKLAKWKGVARKTAL,-0.937 ± 2.1
26,PVAVVGILHPVFDRRPMRTV,-0.031 ± 0.89

row,Substance,amyloid nucleation score
1,CDYLNGLKGYSP,-0.19 ± 0.35
2,GWLTYSPRSALIDHERRSLQ,0.879 ± 0.15
3,SYMGSNSSYYCMRGWGRTWY,2.14 ± 0.095
4,RKRNKYILYYRCNRWFQLYC,-0.323 ± 1.6
5,LRHLVIGNKNALLVWFRSHI,0.817 ± 0.52
6,TNFFGSPCAMCNFSLDICSK,8.038 ± 0.057
7,VGTTDG,inactive
8,RRWGFRAERVL,0.269 ± 0.61
9,CCLEWRWLRMEDDPVNGEDV,-0.073 ± 0.43
10,DCVKGHSECCRPSKLVKYWR,inactive
11,VSDRRTGVLRIHCNFKVGLS,1.89 ± 0.16
12,YDTFSPRSWS,2.02 ± 0.62
13,GPRHYKVFHSYSAFGGYSVC,1.01 ± 0.81
14,SSFSLGSTLF,0.597 ± 0.52
15,SLEDEEQLYLANSIREGLAV,0.76 ± 0.51
16,GSRVVQRYVAVHACVHERVT,0.589 ± 0.4
17,SDAGARKIIFCFEIITQHPV,-0.235 ± 0.42
18,CKHVETK,-0.535 ± 1.4
19,LVSWSTVDVSQLTAWKKPAG,-0.431 ± 0.36
20,RVGKYDLKSRDLGVGVDGVG,0.586 ± 0.29
21,GGSVRRDQMVYREDMQSNST,-0.746 ± 0.93
22,ARMVVCHPAGFGGAWPSRWC,-0.105 ± 0.93
23,GVMPWLR,-0.123 ± 0.99
24,SYISLSLISFSVGGSSHFSM,6.96 ± 0.077
25,VLPFSLFAYAACFVLTLTYV,0.274 ± 1.1
